# According to a protein production outcome set (Wang et al. 2014):
# Test: label from the status in PepcDB records
# 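Note: failed if final PepcDB status was selected cloned or expressed and not failed if soluble or beyond.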
row,Sequence,protein production
1,MKDLFSTDSQRYQQARPTYPPSLLQSLLQYIPERELAWDCGAGSGQLTHMLASYFDQVVGTDISQTQLSHAEYYDNISYQLQPAENTTFPDHCFDLITVAQAIHWFDFEAFYAEVRRTIKPSGILAVVGYGLIHVDDLEINAKVQHLYHQTLNGFWDAERHYVDELYQTIPFPFDEIEMPAFQIEAQWTLQQLLQYLNTWSAVQHYILEKNLDPVQQLLSKGRDLQDQVSIQFPVLLRVGRCS,failed
2,MKDLIIVGAGGFGREVAWLVEDINNNNREWNLLGFIDENEQNHGNELNGYKVLGGFDYLNNKKNIYYVCAIGNAKVRKEIVEKKCSKYNIKPANLIHPSVIMSKKYNKMGEGCIICASNIITVNVTLGDHIIVNLDCTIGHDVVINDYVTIYPSVNVSGNCNIGECVELGTGTQVIQGNNIGDRTIVGAGSVVIRNIEGDKVAVGVPTKVIK,failed
3,MKDLSSIVAKFNTQGTITEIKPLGAGLINDTYKVNTQEADAPDYVLQRINHAIFQNVEMLQSNIAAVTGHIRKKLTEAGEADIDRKVLSFLATEEGKTYWFDGESYWRVMVFIPRAKTYETVNPEYSNYAGEAFGNFQAMLADIPETLGETIPDFHNMEFRLKQLRDAVAANAAGRVAEVQYYLDEIEKRADEMCKAERLFREGKLPKRVCHCDTKVNNMMFDEDGKVLCVIDLDTVMPSFIFSDYGDFLRTGANTGDEDDKDLNRVNFNMEIFKAFTKGYLKGAKSFLTPIEIENLPYAAALFPYMQCVRFLADYINGDTYYKIKYPEHNLVRTKAQFKLLQSVEEHTPEMVAFINECLVNGLEHHHHHH,failed
4,MKDLTQGSIPKHLISMALPMMIGMLIQTLYFIVDLYFVGKLGSAALAGLSLAGNAMFLIFALTQILNVSTAALISHAVGAKDQQDANLTFNQSMMLSTVVGIIVCIIGYFGAQDYLNLISQDSETVMMGLTYLHWFIPCMALQFIMVSISSALRGTGIVKPTMVIQTLSILLNIILSPILITGWGSGYAMGIAGAGFASSLSVIFAVVLLCYYFITTDKYVSVDFSLWHINVPRIKKLLAIGLPAGGEFFLMFVYMGAIYWLIKPFGAEAQAAFGLGSRVMQALFLPAMAIAFAAPAIAGQNFGAQNYQRVRDTFRWTAIMTCSLMAIILLICLSQAEWMLTHFSDDREVILISVAFLQMICWNFVPAGLVFTCSGMFQALGNTMPALLSTATRLITFILPALWLSKQSDFQIEQLWYVSVATVCLQSSVSFYFLKREFKKRLPNDNLSNECSDELNKNKLIT,failed
5,MKDMKMQSSPETMMTRIPTPDPHSTGVREDAMDSVCKPWKLYENPYYCSSQSQQHQHQRKAFIWDLNFIKVFMESELGKAQDEIKELKAELDYERKARRRAELMIKKLAKDVEEERMAREAEEMQNKRLFKELSSEKSEMVRMKRDLEEERQMHRLAEVLREERVQMKLMDARLFLEEKLSELEEANRQGERERNRMMKPKILERACSSPARRRCENPQIKRGINPFPRVMRAIRSKSEKWGSKLECQKVQLKILLRQKTTPRCTPLLSSPPP,failed
6,MKDMQTKIVMIGILLSTGIMLRAQDNGGCEDCPAFNAGGKVEVRGVKERIIGDLSQPVAVRVRTLIQQMTLAEKVAQLVSESDSIPRLNLPAYNYWNECLHGVARAGEVTVFPQAINLASTWDTVLVKRVASAISTEARLKYLEIGKGLTYWSPTINMARDPRWGRNEETYGEDPHLTSRLGVAFVKGLQGDHPTYLKTVATIKHFVANNEENNRFSSSSQIPTKQLYEYYFPAYEACVKEANAQSVMTAYNAFNGVPPSGSHWLLDDVLRKEWGFDGFVVSDCGAIGVMNWQHRVVNSLEEAAALGVNSGCDLECGTTYKEKLVQAVEQGLISEAAIDRALTRVLTARFKLGEFDPMELVPYNHYDKKLLAGKKFAELAYEAAVKSVVLLKNDALLPLNKEKIKSVAVVGPFADYNYLGGYSGQPPYSVSLLKGVKELIGKKGKVTYLNGMGTSADSIAQVVKGADIVLVALGSDEKMARENHDMPSIYLPEEQEKFLKKIYQVNPRIVLVFHTGNPLTSEWADTHILAIMQAWYPGQEAGRALANLLFGNENPSGKLPMTIYKTEEQLPDILDFDMWKGRTYRYMKGEPLYGFGHGLSYTSFEFDNIQGNDTLQPDAILQCSVELSNSGQLAGEEVVQVYVSRENTPVYTYPLKKLVAFKKVKLASGEKKKVDFTIAPRELSVWEDGKWRMLSGKYTLFIGSGQPGLAKGITKGFEVKIR,failed
7,MKDREIFAGLSTTVPFVLRLDGRSFHRFSKDRYKKPYDKVFSDAMVKTARALVTDSGLSPSFAYTFSDEISLYVPAPVFDCRVEKLASVSAAFAASAFTLYAGASEPLAFDARVIPIEEGLFPAYLSWRQAEAWRNHMNGYAQKILQDEGVSPTNAQKQLDGMNAAALHEFAFSRGVNLALTPAWERRGICIYRDVVMRDGYNPIKDEKVSVERTIAVIDEDVPLFKSPEGTAWVLSKIRLEHHHHHH,failed
8,MKDRLINFFGSEWFGMAIATLAVAQTFFLASRYMENITLKYTGEIFFYLGIIIFLVIFILWTIRGLTIHDKKWSHWNNLTRLSFIALVPIILFVINHITIELYGINELMARLSLYNYFFSYFLALILGVLLGYRIYTKEINRNEINYAIIIPPLSIGTSIFLATPLIGYYHGTIAESIYFLVLMGLGIFFFLYIFIGSVALSGHVSNKSGSSLPTAMLPVGVSSLIIINLISINSFGAVIDHLPFSIYTVEFVSILLWGFEVWNFLVMMIIVFRKETFGYLSVWAYGFPLGLFATSTIKLEEVTKIVILGNIFIFIWVALVLLWFYGILNTYVFIRRGILGSHPDK,failed
9,MKDSQEVTHFSAARSSKWTQHDTYWLLSLFGTAVGAGILFLPINIGLGGFWPLVLMAVLAFPMTYLSHRGLARFVLSSRRPNADFTDVVEEHFGQNAGRLISLLYFLSIFPILLIYGVGLTNTVDSFLVNQADMVSPPRALLSGALVFGLIAIMLSGEKIMLRAFAIMVYPLAAILALLSLYLIPYWSMPSFDFPQTSDFLHTVWLAVPVVVFSFSHAAAISSFANIQRRHYGEQADQKSEQILRHTSVVLILFVLLFVFSCVLALSPQALQEAKAQNISVLTYLANVTDNPFIATLGPLVAFIAITSSFLGHFLGARESLSGLLTKNLGVSLRLAERLTIGFLFVTIWIAAILNPSILGMMEALSGPVIAMILFIMPMIAVFKVPALREHQKRFSTFFVLLVGLLAVSALLYSLLR,failed
10,MKDVIVIGAGPSGSFAAYRLAKAGFTVDILEEHREVGKPVECTGLVSQRVLKYVRTKSIAGTVRGANIFFPNGKSVHIEKDDPTIVLFRDAFDKDVAAMAIGAGSGIRINARALSVTEHDDHVTVRYRENGSIKEEDARIVIGADGINSVVRRDVYGMRQKHVVSTLQYDMASGIEDEDSVNVYLGSQYTHGFFGWAVPGGDIVRVGTGSYKASARPYMDNLSRRFGDNRTLGITGAGIPIRMAERLSSRRTVLVGDAGGIVKPLSGGGIYTGIFSSDVAANYVVEALESDSSEASLRKYDREIRNTIGKELKKDAMIQRIYSRISDRSFNRIYSMISNEKIIDVINRSGDIDYPSTVIIKVLLRNPGILYSMWKLEHHHHHH,failed
11,MKEDIVSGTVKRVERHGIIVEVVAGKLDALIPRDQMIPRENFRSGDRIRALFLRVEEIGNTGRKQVILSRTSGDFLVKLYANEVPLEHHHHHH,failed
12,MKEDYFAEDPKFFNKKLRPKNLDEILKFLKEKFILNDEDKIILITSGGTKVPLEKIEIRNIDNFSTGKRGTLICEYFLKINKKVIFLHRKGSYIPFEYHLKDLAKMENLKVEENNIRFNLTKENERNILIDNLQNYKMYYNNLFLISYDTIFEYGFYLIEISNLLNELMINKYQNTFLLKNIYHKLKQEHNINNLLLYEIFYSTNNILNDMLLFFMSIQNKKCSEISKHQNTSYKLYYKLLLFLNLRFDVYSNNQFFINIQLFFKYIFSLLSNIIQMKEKYNIQQEEIQNIILYIQMLIKNFNSNVLQNNINEQEVIHNNININNIKEEQIIPNNIKNIHNNDNINHCDDNKINNPDNHLLNTDTYILHNNNPSCNDYNLNNLSFNINKYINEEKGKNKKTNQHISEQFLFPTHLVIMCAAASDFYIPYDEMHENKIDSNYSPLSIQLCLTPKFYKIINSHFPLLKYCIFKLEDEEKILIDKSNERIKYTDLLIANLLTQRYDYVYIFKKQFEYVLLKKSNSEQIENDICYEICKHFSIL,failed
13,MKEIKYLIPYVIFTSFSYYFAKNGVEQVSPSLFMGIRYLLSGLILLPFAKKLRITKNIILLAIMTSTSTAFWAYGLLYVSPAESAVLSYSMPIFSLPIAFLMVSERPSKVEIIGIVIGFTGVIIYGIPLMKGFTIFGAVLTISNAVFWASFTVFYRKLKEEDPFSTNAMQFLIGSLFLFALVPLDPSHNFSLSFAVDVIWMATLGGALQFILWNFMVKISAVNRITVLAFAVPIFTTILGVILSHEIPSGLAIAGVIIMFTGIFVSRLKGGISIVRETSG,failed
14,MKEITIALVGQPNVGKSSLINALSNAHLKVGNFAGVTVDKMEVGLIHKEHQITIIDLPGTYALNDFTTEEKVTKDFLEKGQYDLILNVVDSTNLERNLALSAQLLDTNKKMLLALNMWDEAQKEGIKINTEKLSKELGVVCVPTSARSKEDRLNTELLLDEIVRLYSQNTTNNENIKVPSQSFKESLKYSQSAQRIAQLVISENQQNASFEHTYKIDKILMHKRYGIFIFLGFMFIIFSLSFLIGGGVQKALETGFKFLSDGIKENVANEDLASLVGDGIIGGVGATVSFLPLIVVLYFGISLLETTGYMSRVAFLLDGILHKFGLHGKSFIPLITGFGCSVPAYMATRTLQNYNERLITLFVIGFMSCSARLPIYVLFVGSFFPSSSAGFVLFCIYILGAVVALVMAKLLKLSVFKGQTESFIMEMPKYRFPSWRMVYFSIYTKSLSYLKKAGTYILVGAILIWFMSQYPKSDAAMKAYKQESLLVNKDTTLSSEAKEEKLKELKTELDKKNLKNSIVGRGGAYLEKVFSPMDFDWRLSVSLVTGFMAKEVVVSTLGVLFSLGDQNEKSDAFRGILRKEVSVPSGIAFIVFVMFYIPCFAATITFGREAGGIKFVAYLFIFTTVVAYAFSLIAFYATQILV,failed
15,MKELLKLDFFIQKKYIKSSIIVFLFLGITFALTQGMNYLYTMGTFIVFYLTIIPIEVERKSKFNIYLNSLPNKKSNYIYSKYLSTLIYIIVVNLFLYLFCTILGVISGSDFTLTLRAILPNIIVQLFYVSLTLPVYMIISHKFYRVVNIIFTILIMMISSILFNSLENENLQVLFNITNGVYGLAFGILALIISLIVSLNIYKKSEVS,failed
16,MKELSDVILDRIDAICDEADLLFEDEKSEEAIAKYNEALTLLPEPIEEYEPSAWLISSIGDVYFFDEEYEKALAQFEHAMGCIDSEDNPYLLLRAGQCHFELGQMQDAEDTMHEAYLIEGEEIFEEEDPKYWEFLKSKITIVDLEHHHHHH,not failed
17,MKENEYRFIMRIFVLVSFTAVLMIAVPFLDTIAFACAFAYMTEPFFNAVRRYAGRTLGAILSILMVTVPALSLVVLILSDVVEFLNTLNVPSLVDTTIQFVNYLGLQNIAQEDLNRILSELWTFLKPTINKMAEQIYGIPLLFIKGLITVFLTYYFLKDGHRFKDAIMPHVPEVYHVQTELFIRKLNEAYKNLFVVNALTSFTVGLISIAGFWAIGLPNPVTLGALSGILTLLPIVGGWTIYMPLSLYYIAVGMYTKAILLFGFGVIFLSLAPDFAIRPRLVNHESDIHPAIALVAFLMGPLALGVTGFALGPLIMGTFDAIFRVKNGKDSIINLK,failed
18,MKEQSITKGFAILSIASIVAKLLSLIYVPFLTRIVGSVGMGIYGKTYDIFVFVYALTNVGLQTAISKYVSELDAVGNYKDALRAFKISRAFLLVVGTIFTIVLMLSANFIASMSQTPQMVYPIIFLAPTIMITTVLVTYKGYFQGRSQATPIAIATVIEQVANVFLSLLCAYFLIKKSVSLGVAGGTVGSSAGALMAVLYLIYIYNIYGVEKEAKRKQEPGVRRITGKKIARTLFKYGLPITLSTGLQNLGNIIDMLTVSNRLVDAANFSQSDANALYGYFSTRYKILINVPMVFITSLGYMALPAISRAYALKDKKEIKSKINFSMRVTYLLSIPSAFGLALLSENIYRYIFADSNGYKMMVIGAAMIPLTAIVLMQNVILQSVSQFYYVLFTLALSIVVKFTLNMTLVANPDINIYGAVISGMVAFVISLVLNHFRMKKTLKMKISMLKYALKPLLASIYMGIGIILSKYVISLFIDFDKLSLILGIAILLVIIAIGAFMYLHAIIILGGIKKEDIEEISPKLLRVMPRFLRKNIK,failed
